Source: US7361735B2, “LITAF binding site peptides and methods of using the same” (Trustees of Boston University, priority 2003, dated 2008)

System: wtTNFβ, TNF-α promoter from −991 to 1
Experiment: Luciferase reporter assay, wild-type TNF-α promoter, WTK-1
Format: cell-based
Conditions: WTK-1 cells; normalized to β-gal; LITAF overexpressed alone without LPS stimulation
Excerpt: FIG. 10 is a graphical representation of the analysis of LITAF function in luciferase reporter constructs. The series of TNF-α promoter DNA fragments were subcloned into the pGL3 basic vector (Pharmacia), a promoterless and enhancerless luciferase reporter gene. One construct, named wtTNFβ, contained TNF-α promoter from −991 to 1. Another one, mtTNFβ1, was a mutant inserted with the promoter from −991 to 1, but lacking the LITAF binding site. WTK-1 cells (grown to 85% confluence) in a 6-well plate at 1.2×10^5 cells/well were co-transfected with 1 μg DNAs including pCMV-LITAF recombinant vector, pVMVβ-gal and pGL3 basic as control by Fugene 6 (Roche Molecular Biochemicals) for 3 hrs, washed with PBS twice, then individually stimulated with LPS or Chariot/peptide complex of 100 ng/ml peptide B (peptide fragment of LITAF representing aa 152-228) or HA as control for 3 hrs, washed with PBS, incubated at 37° C., 5% CO2, o/n. The β-galactosidase gene was included in all transfections. The cells were harvested and lysed approximately 12 hrs after transfection. The promoter activity from each lysate sample was measured using the luciferase reporter assay system (Promega) and normalized to β-gal expression in the same sample, as described in the methods section below.
The activation of TNF-α gene expression by LITAF was investigated. […]

B1: exogenous LITAF: full-length human LITAF (SEQ ID NO. 1) overexpressed from the pCMV-LITAF recombinant vector (protein, listed as Homo sapiens)
chain: MSVPGPYQAATGPSSAPSAPPSYEETVAVNSYYPTPPAPMPGPTTGLVTGPDGKGMNPPSYYTQPAPIPNNNPITVQTVYVQHPITFLDRPIQMCCPSCNKMIVSQLSYNAGALTWLSCGSLCLLGVHSGLLLHPLLRGCPAGRGPLLSQLQSSPGHLQAFVGLSQTWREPGAAGSPFHLSSSFTPGGGSALVVSPLQGAHLHVFFWGEYVAKLTNLQTPEIAAWSRA
  TNF-α promoter activity (luciferase), wild-type promoter/reporter plasmid: 2.5 fold
